What is called stoichiometry N is a count of units in the complex or per binding partner.

We go through 1 substance from publication PMC8251803.

For the test, the target named is cytochrome c oxidase from Aquifex aeolicus (AaCcO), protomer of subunits CoxA2, CoxB2 and IIa (Aquifex aeolicus) (UniProt O67937). The experiment in a line: cryo-EM structure; single-particle cryo-EM with 3D classification (RELION) of the sample purified from native A. aeolicus membranes by anion exchange and size-exclusion chromatography; fractions with a dominant band around 242 kDa in Blue Native PAGE; two classes of particles (dimeric complex III, dimeric AaCcO); AaCcO dimer at 3.4 Å. Background: In gel filtration, larger molecules generally elute earlier.

In the case of “cytochrome c oxidase from Aquifex aeolicus (AaCcO), protomer of subunits CoxA2, CoxB2 and IIa (from UniProt O67937 1-592) (complex)”, the stoichiometry N came out at 2.
